Reference: patent publication US20260258125A1 (NONA BIOSCIENCES SUZHOU, published 2026)

T1: recombinant human CEACAM5 Fc-tag protein (human, UniProt P06731 35-685, limits assumed)
T1 construct: also called huCEACAM5 (Octet); huCEACAM5-Fc; not shown: Fc tag
T1 sequence (looked up): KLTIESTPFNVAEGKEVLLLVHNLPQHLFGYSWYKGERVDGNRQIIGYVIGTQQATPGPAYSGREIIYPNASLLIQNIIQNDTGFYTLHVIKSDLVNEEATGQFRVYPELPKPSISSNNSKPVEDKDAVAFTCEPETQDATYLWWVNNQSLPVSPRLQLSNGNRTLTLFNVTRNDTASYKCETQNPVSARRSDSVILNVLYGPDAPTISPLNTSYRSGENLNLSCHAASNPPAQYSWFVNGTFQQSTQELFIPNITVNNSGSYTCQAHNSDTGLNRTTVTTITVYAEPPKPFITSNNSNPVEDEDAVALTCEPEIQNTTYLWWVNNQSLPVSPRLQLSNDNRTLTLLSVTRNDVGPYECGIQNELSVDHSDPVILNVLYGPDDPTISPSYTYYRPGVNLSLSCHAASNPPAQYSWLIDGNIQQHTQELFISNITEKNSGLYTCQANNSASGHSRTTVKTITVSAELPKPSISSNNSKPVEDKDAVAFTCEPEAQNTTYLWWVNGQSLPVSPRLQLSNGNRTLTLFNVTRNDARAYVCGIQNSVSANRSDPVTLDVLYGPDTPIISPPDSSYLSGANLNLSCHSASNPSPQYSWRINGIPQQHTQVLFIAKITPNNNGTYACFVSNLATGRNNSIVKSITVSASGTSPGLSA

T2: recombinant human CEACAM6 Fc-tag protein (human, UniProt P40199 35-320, limits assumed)
T2 construct: also called huCEACAM6 (Octet); not shown: Fc tag
T2 sequence (looked up): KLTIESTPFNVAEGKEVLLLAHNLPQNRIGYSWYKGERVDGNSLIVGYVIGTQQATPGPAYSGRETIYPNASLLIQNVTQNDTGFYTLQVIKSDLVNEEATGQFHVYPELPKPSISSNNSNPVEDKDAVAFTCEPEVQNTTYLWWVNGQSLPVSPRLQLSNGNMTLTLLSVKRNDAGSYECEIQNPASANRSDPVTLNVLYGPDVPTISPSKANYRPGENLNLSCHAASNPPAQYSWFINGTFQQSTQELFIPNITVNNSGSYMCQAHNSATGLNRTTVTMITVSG

T3: recombinant CEACAM5-his protein, biotinylated (UniProt P06731 35-685, limits assumed, biotinylated (sites not given))
T3 construct: not shown: His tag
T3 sequence (looked up): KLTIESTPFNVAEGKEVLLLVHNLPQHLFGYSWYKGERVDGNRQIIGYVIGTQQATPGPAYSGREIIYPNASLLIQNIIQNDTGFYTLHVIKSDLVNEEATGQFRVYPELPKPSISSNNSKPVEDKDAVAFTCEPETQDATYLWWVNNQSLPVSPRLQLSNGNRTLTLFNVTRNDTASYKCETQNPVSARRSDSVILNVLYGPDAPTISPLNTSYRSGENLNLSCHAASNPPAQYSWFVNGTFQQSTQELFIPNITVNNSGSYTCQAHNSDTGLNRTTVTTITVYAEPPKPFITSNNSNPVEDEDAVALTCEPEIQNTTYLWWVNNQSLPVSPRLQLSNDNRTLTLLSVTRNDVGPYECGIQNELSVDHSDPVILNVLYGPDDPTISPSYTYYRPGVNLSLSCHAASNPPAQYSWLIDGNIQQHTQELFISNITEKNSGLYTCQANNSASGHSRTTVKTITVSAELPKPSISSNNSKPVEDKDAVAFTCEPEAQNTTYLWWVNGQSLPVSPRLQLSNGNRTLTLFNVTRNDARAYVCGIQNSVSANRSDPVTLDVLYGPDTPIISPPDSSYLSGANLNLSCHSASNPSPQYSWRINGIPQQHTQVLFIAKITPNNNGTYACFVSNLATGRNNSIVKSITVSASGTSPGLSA

T4: human CEACAM5 on 293T cells (293T-huCEACAM5 cells) (human, UniProt P06731 35-685)
T4 construct: whole, on cells
T4 sequence (looked up): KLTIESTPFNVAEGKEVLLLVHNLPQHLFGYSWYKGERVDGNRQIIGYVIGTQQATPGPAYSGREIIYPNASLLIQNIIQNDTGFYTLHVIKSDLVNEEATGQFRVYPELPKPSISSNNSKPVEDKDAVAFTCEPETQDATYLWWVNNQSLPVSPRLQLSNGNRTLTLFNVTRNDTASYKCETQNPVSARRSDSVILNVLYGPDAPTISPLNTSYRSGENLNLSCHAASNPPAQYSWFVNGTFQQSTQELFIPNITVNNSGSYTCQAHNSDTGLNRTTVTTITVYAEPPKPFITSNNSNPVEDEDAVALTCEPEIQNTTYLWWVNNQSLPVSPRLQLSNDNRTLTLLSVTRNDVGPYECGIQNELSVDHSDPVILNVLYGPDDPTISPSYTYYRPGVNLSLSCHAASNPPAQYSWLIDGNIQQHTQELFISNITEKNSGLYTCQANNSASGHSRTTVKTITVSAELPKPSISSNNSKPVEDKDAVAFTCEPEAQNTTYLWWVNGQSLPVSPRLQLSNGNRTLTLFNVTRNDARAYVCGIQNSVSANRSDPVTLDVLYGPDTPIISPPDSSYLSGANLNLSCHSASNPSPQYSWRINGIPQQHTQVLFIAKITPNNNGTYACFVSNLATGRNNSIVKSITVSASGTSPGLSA

T5: human CEACAM8 protein (human, UniProt P31997 35-320)
T5 construct: Bought protein; also called huCEACAM8
T5 sequence (looked up): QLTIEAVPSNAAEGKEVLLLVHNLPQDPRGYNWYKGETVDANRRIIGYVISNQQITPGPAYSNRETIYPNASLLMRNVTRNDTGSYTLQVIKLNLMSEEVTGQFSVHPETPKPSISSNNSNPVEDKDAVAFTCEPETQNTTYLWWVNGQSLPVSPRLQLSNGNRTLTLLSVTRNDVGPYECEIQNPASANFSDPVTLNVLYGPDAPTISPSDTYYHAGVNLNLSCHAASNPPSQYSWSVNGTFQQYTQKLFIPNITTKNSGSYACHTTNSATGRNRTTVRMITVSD


Key:
cyno CEACAM5 protein = target: T6, cyno CEACAM5 protein (cynomolgus monkey); experiment: ELISA, antigen coated on plate
T6 construct: also called cynomolgus CEACAM5
Source text: (§1) Binding of recombinant anti-CEACAM5/6 dual-binding monoclonal antibodies against human and cynomolgus CEACAM5, and human CEACAM6 (Uniprot P40199), human CEACAM 1, 3 (NP_001806.2, Sino Biological 11933-H08H) and 8 (NP_001807.2, Acro Bio CE8-H5224) were detected by ELISA. Anti-CEACAM5/6 dual-antibodies were serially diluted in staining buffer (PBS containing 2% FBS). […] ELISA was used to test the binding between antibody containing supernatant or purified antibodies and the antigen. Briefly, the antigens were coated on a 96-well high binding plate overnight at 4° C. The plate was washed with PBST three times, incubated with blocking buffer (2% Bovine Serum Albumin) for one hour at 37° C., washed with PBST three times and incubated with antibody containing supernatant or purified antibodies at desired dilutions or concentrations for one hour at 37° C. A secondary antibody, anti-human Fc-HRP (Jackson Laboratory, 109-035-097) was used for detection of the targeted antibody. TMB and stopping solution were used for detection of HRP signal. The HRP signal was read on a SPECTRAMAX plate reader.

[1] = target: T1, recombinant human CEACAM5 Fc-tag protein; experiment: Octet (BLI), antibody on AHC sensor, antigen in solution
Procedure: (§2) Binding kinetics of recombinant anti-CEACAM5/6 antibodies to CEACAM5 and CEACAM6 were analyzed by Octet. In Octet analysis, recombinant human CEACAM5 Fc-tag protein (#Uniprot P06731) or CEACAM6 Fc-tag protein (Uniprot P40199) was serially diluted with 1×kinetic buffer (Fortebio). Anti-CEACAM5/6 dual-binding antibodies were diluted to 5 μg/mL. Then diluted antibodies, antigen and regeneration buffer (10 mM glycine pH 1.75) were added to 96-well plates (Greiner). Rate constants for association and dissociation were measured using AHC sensor (Fortebio). The sensor surface was regenerated after each binding experiment with regeneration buffer. The traces were processed using ForteBio Data Analysis Software (version 8.0, Pall ForteBio, CA, USA).

[2] = target: T2, recombinant human CEACAM6 Fc-tag protein; experiment: as above
Procedure: as §2

[3] = target: T3, recombinant CEACAM5-his protein, …; experiment: Octet epitope binning on biotinylated CEACAM5-his; competitor PR303561
Procedure: (§3) In epitope binning analysis using Octet, antibodies were tested against other antibodies in a pairwise fashion to see if antibodies block one another's binding to the epitope of the antigen. The first and second antibodies was diluted into same concentration which could saturate the binding of immobilized antigens. Recombinant CEACAM5-his protein was biotinylationed and was then used as antigen and immobilized to SA sensor. The first antibody was associated with antigen and then followed by the second antibody. Data were analyzed by ForteBio Data Analysis Software (version 8.0, Pall ForteBio). The rate of RU values of the same antibody as 2nd antibody to as 1st antibody was calculated as the co-binding rate of this antibody to other antibodies.

[4] = target: T3, recombinant CEACAM5-his protein, …; experiment: Octet epitope binning on biotinylated CEACAM5-his; competitor PR304171
Procedure: as §3

[5] = target: T4, human CEACAM5 on 293T cells …; experiment: flow cytometry on 293T-huCEACAM5 cells with against without 100 nM soluble CEACAM5
human CEACAM8 protein [6] = target: T5, human CEACAM8 protein; experiment: ELISA, human CEACAM8 protein coated on the plate, anti-human Fc-HRP, OD450
Source text: as §1

human CEACAM8 protein [7] = target: T5, human CEACAM8 protein; experiment: ELISA, antigen coated on plate
Source text: as §1

EC50 (cyno CEACAM5 protein)	Kd [1]	Kd [2]	co-binding rate [3]	co-binding rate [4]	fold change of EC50 at the presence of 100 nM soluble protein [5]	binding result (human CEACAM8 protein [6])	binding result (human CEACAM8 protein [7])	Binder
0.09 nM	5.48 nM	19.9 nM	102%	-4.88%	4.1 fold	no binding (tested: 10 nM)		PR304294 (antibody, human IgG1, kappa, V domains shown, Recombinant full antibody) VH: EVQLLESGGGLVQPGGSLRLSCAASGFTFSSYAMSWVRQAPGKGLEWVSAISGTTYNTYYAGSVKGRFTISRDNSKNTLYLQMNSLRAEDTAVYYCAKGISVAGYYYYGMDVWGQGTTVTVSS VL: EIVMTQSPATLSVSPGERATLSCRASQSVISNLAWYQQKPGQAPRLLIYGASTRATGIPARFSGSGSGTEFTLTISSLQSEDFAVYYCHQYNNWPLTFGGGTKVEIKR
1.25 nM			101%	13.7%			no binding	PR304171 (antibody, human IgG1, kappa, V domains shown, Recombinant full antibody) VH: not shown VL: EIVMTQSPATLSVSPGERATLSCRASQNVISNLAWHQQKPGQAPRLLIYTTSTRATGIPARFSGSGSGTEFTLTISSLQSEDFAVYYCQQYNNWPLTFGGGTKVEIKR
